This passage reports in vitro fertilization rate after preincubation of the VE with gpp2 (concentration series, highest, Kd of the concentration dependence of the inhibition of in vitro fertilization and in vitro fertilization rate after pretreatment of the VE with the peptide results from PMC4525147.

Where no end group is shown, it is not given here.

Test [1] has as its target gp41, the Xenopus laevis ZP3, of the vitelline envelope (Xenopus laevis).

With RYEIINQNGCLVDGKLDDSSSAF (also: biotin) [gpp2, gp41-derived peptide], the in vitro fertilization rate after preincubation of the VE with gpp2 (concentration series, highest at 4 μM), normalised to control in the test with dicalcin (wild type) is 132 % of control. Regarding AALCKL (also: biotin) [dcp15, dicalcin-derived peptide], in test [1], the Kd of the concentration dependence of the inhibition of in vitro fertilization stood at 46 nM and the in vitro fertilization rate after pretreatment of the VE with the peptide at 4 μM, normalised to control is 32 % of control. For SFSCNQKNK (also: biotin) [dcp11, dicalcin-derived peptide] the same measures were 33 nM and 25 % of control.
